According to the supplement of paper PMC10567573:
± gives the standard deviation.

Assay: protein stability index of a GFP-peptide fusion (GPS, HEK-293T) (PSI 1-6); higher = more stable
[1] = treatment: DMSO, c terminus: a fixed tail appended
[2] = treatment: MLN4924 1 uM, 8 h, c terminus: a fixed tail appended
[3] = treatment: DMSO, c terminus: native
[4] = treatment: MLN4924 1 uM, 8 h, c terminus: native
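Also: 24-mer peptide tiles fused after GFP, lentivirally expressed, FACS-sorted into six equal bins by GFP/DsRed ratio, decoded by Illumina sequencing, PSI is the read-weighted mean bin number.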

Row | Sequence | protein stability index [1] | protein stability index [2] | protein stability index [3] | protein stability index [4]
1 | NALVTKLLLDCGAEVNAVDNEGNS [FEM1B] | 3.64 ± 0.19 | 3.72 ± 0.17 |  | 
2 | FFIESCGAQVPVEGSRRETSITV |  |  | 2.56 ± 0.97 | 2.29 ± 0.36
3 | VLQDGCVFEKAGVSISVVHGNLSE [CPOX] | 3.21 ± 0.32 | 3.05 ± 0.53 |  | 
4 | IAANLENKATNTDHLTTVLYLQLA [C8orf76] | 2.36 ± 0.28 | 2.17 ± 0.25 |  | 
5 | VAEAFRALASAQCPQFGIPRKRLK [SPOPL] | 2.73 ± 0.42 | 3 ± 0.34 |  | 
6 | VAAGRTQKAGVTRSGRLILWEAPP [NEK8] | 2.85 ± 0.24 | 2.94 ± 0.24 |  | 
7 | TIGVEFATRSIQVDGKTIKAQIWD [RAB11A] | 3.04 ± 0.2 | 3.08 ± 0.32 |  | 
8 | SSVEDLKAKFCSTVANDVMLRTGL [NETO1] | 2.97 ± 0.14 | 3.07 ± 0.14 |  | 
9 | TLYANNVQRVMAQALGIPATECEF [LPCAT4] | 2.49 ± 0.22 | 2.58 ± 0.19 |  | 
10 | DRGGWGISPRGAGYTFGQDISETF [PPP2CA] | 3.21 ± 0.18 | 3.3 ± 0.34 |  | 
11 | AAAAAAPAPPPPAGGATAWGDLLG [SNAP91] | 4.37 ± 0.17 | 4.42 ± 0.081 |  | 
12 | RQKGTGKEYAAKFIKKRRLSSSRR [DAPK3] | 4.2 ± 0.24 | 4.5 ± 0.29 |  | 
13 | YILECDHHGGDYKHWREWGSHAQT [CRYBA1] | 2.32 ± 0.15 | 2.43 ± 0.51 |  | 
14 | PEGHVLRSDGKTCAKLDSCALGDH [MATN2] | 4.79 ± 0.13 | 4.72 ± 0.21 |  | 
15 | GVLHKHQRALHKYSLMKRQMMSAT [SNX8] | 2.4 ± 0.18 | 2.58 ± 0.24 |  | 
16 | DGAPALCPSPEALSPEPPVYSLQD [PRKX] | 5.37 ± 0.098 | 5.21 ± 0.15 |  | 
17 | SLDWETFEQYCAWQLFLAHNIPLE [INTS3] | 2.3 ± 0.43 | 2.16 ± 0.32 |  | 
18 | LCNEISLSEIKDAPKVNAVDTLNV [DLC1] | 3.77 ± 0.4 | 3.81 ± 0.25 |  | 
19 | KLHKSQLSQALNGLSDRAKEAKEF [TRIM9] | 4.11 ± 0.15 | 4.17 ± 0.22 |  | 
20 | KLLSVIVWMLMLLLAVPNIILTNQ [P2RY14] | 2.79 ± 0.47 | 3.21 ± 0.41 |  | 
21 | PRSSLAESFFVDYEENEGAGPYLL [ADAMTSL2] | 3.91 ± 0.17 | 3.82 ± 0.17 |  | 
22 | TPPASPPPSVLISKNEVGIFTTPN [KMT2E] | 4.03 ± 0.18 | 4.06 ± 0.1 |  | 
23 | RDSYGGPPRREPLPSRRDVYLSPR [RBMX] | 3.69 ± 0.36 | 3.97 ± 0.2 |  | 

Row | Sequence | protein stability index [1] | protein stability index [2] | protein stability index [3] | protein stability index [4]
24 | PLLSASVTGHTNIVDFLTHHAQTS [FEM1C] | 3.11 ± 0.27 | 3.11 ± 0.23 |  | 
25 | LQFDPAPRRGEPHVTRRTPDYFL [PPP2CA] |  |  | 4.16 ± 0.3 | 4.18 ± 0.18
26 | MASLSRPSLPSCLCSFLLLLLLQV [MOG] | 2.5 ± 0.41 | 2.28 ± 0.19 |  | 
27 | LGNREALIQFLEQVHQGIKGMVLD [CPN1] | 2.43 ± 0.34 | 2.26 ± 0.18 |  | 
28 | PSAGFRCCAAPGPHVALAVRYNRV [ANKRD9] | 2.37 ± 0.28 | 2.21 ± 0.34 |  | 
29 | MALRGPAGLGPGSRRPLDEAVAGA [DENND6A] | 4.12 ± 0.42 | 4.53 ± 0.19 |  | 
30 | TQPGIRRARDKALSGGKRKETLV [NET1] |  |  | 4.29 ± 0.3 | 4.15 ± 0.38
31 | RAASENSQDALRVVSTSGEQMKVY [IKZF1] | 4.26 ± 0.57 | 4.78 ± 0.29 |  | 
32 | SSSRGSSHCDSPSPQEDGQIMFDV [BNIP3L] | 4.81 ± 0.26 | 4.91 ± 0.18 |  | 
33 | KGFGFVTMTNYDEAAMAIASLNGY [ELAVL3] | 2.34 ± 0.13 | 2.37 ± 0.1 |  | 
34 | LPYQRRYRERRDSDTYRCEERSPS [CLK3] | 4.77 ± 0.12 | 4.81 ± 0.22 |  | 
35 | QQDDSDEYDDDDSAASTSFQPQPV [ZNF207] | 5.4 ± 0.18 | 5.37 ± 0.18 |  | 
36 | IERLRSLSPKIMQEAFLVQEVVEL [TBC1D10A] | 2.08 ± 0.36 | 2.09 ± 0.29 |  | 
37 | HICTNYNSVCSKFRKEIKSKSADN [RHOBTB1] | 3.37 ± 0.21 | 3.54 ± 0.15 |  | 
38 | QAFRAIDRADYYLEEFKENAYKDL [PCMTD2] | 3.34 ± 0.15 | 3.17 ± 0.23 |  | 
39 | TRRHPGGSRVISHYAGQDATDPFV [FADS1] | 3.7 ± 0.33 | 3.86 ± 0.089 |  | 
40 | LEHRLNEMERTQAQLRDAVQSLQL [RASAL3] | 4.16 ± 0.51 | 4.22 ± 0.19 |  | 
41 | KQPPWEFLQVLEPGARGLWKPPDI [SPAG8] | 2.45 ± 0.089 | 2.32 ± 0.23 |  | 
42 | LDLMPRLMTSKPAEVVKILQTMLR [INTS4] | 2.23 ± 0.16 | 2.13 ± 0.15 |  | 
43 | YFTDTDELQLEAANETYENNFDNL [ATF6] | 4.66 ± 0.14 | 4.337 ± 0.033 |  | 
44 | YNENVYTEDGKLDIWSKSNYQVFQ [MED27] | 2.5 ± 0.42 | 2.97 ± 0.4 |  | 
45 | QTGDLLSTFHTISPSFQLKAAALP [PLAGL1] | 2.6 ± 0.22 | 2.67 ± 0.22 |  | 
46 | TDRDEGANGEVTYSFRKLPDTQLL [PCDHGA10] | 4.44 ± 0.13 | 4.41 ± 0.22 |  | 

Row | Sequence | protein stability index [1] | protein stability index [2] | protein stability index [3] | protein stability index [4]
47 | EHVFDLILELYNIDSHLLLSVLPQ [PDS5B] | 2.92 ± 0.47 | 2.85 ± 0.72 |  | 
48 | LTKSQVQDKPYKCTDCGKSFNHNA [ZNF8] | 3.32 ± 0.21 | 3.54 ± 0.27 |  | 
49 | LESYEDIHGTLHLERLAYLHARLR [PRAME] | 2.41 ± 0.18 | 2.61 ± 0.29 |  | 
50 | FKTIEELRDKIMATTIDNSRVILE [KRT15] | 2.54 ± 0.28 | 2.65 ± 0.26 |  | 
51 | NWFMSFGPEIKLNTSQQGRNQAV [FAM104B] |  |  | 2.12 ± 0.49 | 2.73 ± 1
52 | PSLYSSYHQGCLVNPTGNLPMWSN [NANOGP8] | 2.39 ± 0.073 | 2.37 ± 0.096 |  | 
53 | DCTETIEGLELTEQTFSPAKSLSF [ADD1] | 4.16 ± 0.36 | 4.21 ± 0.26 |  | 
54 | LNPQLVQPAKKPLLWSDPADNKIV [ESRRG] | 3.78 ± 0.23 | 3.83 ± 0.047 |  | 
55 | AGEPGHSPADYLRFQDLVLRMLEY [DYRK1B] | 2.27 ± 0.38 | 2.33 ± 0.22 |  | 
56 | TEDFWRMLWEHNSTIVVMLTKLRE [PTPRD] | 2.21 ± 0.25 | 2.23 ± 0.27 |  | 
57 | MEADSPAGPGAPEPLAEGAAAEFS [SLC35F2] | 5.5 ± 0.27 | 5.48 ± 0.29 |  | 
58 | SLSHSPGCSSTQGNGRPGRPSQYR [LCOR] | 4.44 ± 0.13 | 4.67 ± 0.22 |  | 
59 | LCEKFDYLYGILEERKNEMTQVIT [TRIM55] | 2.7 ± 0.15 | 2.88 ± 0.4 |  | 
60 | VIVKEGGLKLIQIQDNGTGIRKED [MLH1] | 3.44 ± 0.33 | 3.48 ± 0.41 |  | 
61 | NWPARQRGTHAVVGVATARAPLHS [SPSB4] | 3.52 ± 0.19 | 3.57 ± 0.27 |  | 
62 | EGQDLQHISNQKMPTGPPEDRLSL [DRICH1] | 5.11 ± 0.37 | 5.03 ± 0.26 |  | 
63 | VMYRIGCLRDDVVFFIYLYQRWIY [CLPTM1] | 2.93 ± 0.66 | 2.71 ± 0.32 |  | 
64 | EKEDAEKENIEKDEDDVDQELANI [SRPK2] | 5.62 ± 0.36 | 5.61 ± 0.31 |  | 
65 | VRQPILQYRWDMMHRLGEPQARMR [BEX1] | 2.95 ± 0.21 | 3.22 ± 0.29 |  | 
66 | EVFIEWGISAKVFGATTNYGKDIV [ZBED1] | 2.35 ± 0.64 | 2.44 ± 0.3 |  | 
67 | GCLAEAVSVIQSIPIFNETGRFSF [HACD3] | 2.91 ± 0.66 | 2.6 ± 0.77 |  | 
68 | FQCNQCGASFTQKGNLLRHIKLHS [IKZF1] | 4.56 ± 0.16 | 4.4 ± 0.76 |  | 
69 | IKTTLRELLVYIVFLVDICLLTYG [PKD2L1] | 2.98 ± 0.45 | 2.93 ± 0.53 |  | 

Row | Sequence | protein stability index [1] | protein stability index [2] | protein stability index [3] | protein stability index [4]
70 | FLDERLYCESHAKARVKPPEGYDV [PDLIM4] | 2.78 ± 0.8 | 3.23 ± 0.93 |  | 
71 | NLGPKSKVLILRNHGLVSVGESVE [ADD1] | 2.69 ± 0.23 | 3.05 ± 0.38 |  | 
72 | KSLDGVTNDRTASQGQWGRAWEVD [DHCR7] | 4.47 ± 0.11 | 4.465 ± 0.035 |  | 
73 | WQPAVPLMHMLHLSGALDFPRQS [SPATS1] |  |  | 2.9 ± 0.38 | 2.73 ± 0.48
74 | IEKYLRRQLTKPRPVILDPADPTG [OAS1] | 3.09 ± 0.2 | 3.25 ± 0.24 |  | 
75 | IVETVCIVWFSFEFVVRCFACPSQ [KCNA4] | 3.04 ± 0.21 | 2.66 ± 0.18 |  | 
76 | INRVSTCYSEEITVCGDLHGQLDD [PPEF2] | 4.24 ± 0.33 | 3.96 ± 0.27 |  | 
77 | KRSSLPRPSSILPPRRGVSGDRDE [MAP2] | 5.04 ± 0.24 | 5.16 ± 0.3 |  | 
78 | SGGGGSSSNFHINVEESVDGQVVS [KRT15] | 5.26 ± 0.1 | 5.21 ± 0.26 |  | 
79 | GQQDLFRVLKAYTLYRPEEGYCQA [TBC1D10A] | 2.03 ± 0.37 | 2.16 ± 0.31 |  | 
80 | ETIPLTAEKLCIYTDNSIRPEELL [CCND1] | 3.59 ± 0.41 | 3.94 ± 0.34 |  | 
81 | GVKRKADTTTPTTSAITASRSESP [BRD3] | 5.22 ± 0.15 | 5.19 ± 0.16 |  | 
82 | QRIKSQERETEATRGRGGLLRDHI [MOG] | 4.59 ± 0.18 | 4.78 ± 0.11 |  | 
83 | TQDGKEQPELPCAMAMGTPSTTER [PXN] | 5.21 ± 0.27 | 5.18 ± 0.3 |  | 
84 | EAFRLKQQLHARYVLNLLYETKKH [PPEF2] | 2.5 ± 0.61 | 2.36 ± 0.33 |  | 
85 | SSCENKRADLVFIIDSSRSVNTHD [MATN2] | 2.81 ± 0.22 | 2.92 ± 0.13 |  | 
86 | CEPPSYRPMHHEDFKEDLKKFRTK [CDC25A] | 4.89 ± 0.31 | 4.93 ± 0.28 |  | 
87 | AWDNPAYSGPPSPHGTLRVCTISS [PKD2L1] | 2.93 ± 0.31 | 3.05 ± 0.37 |  | 
88 | KPPMMPQAQPAIPRPNRLFLRQLR [C2CD2L] | 3.22 ± 0.17 | 3.43 ± 0.42 |  | 
89 | DAEMELRAKEEERLNKLRLESEGS [HACD3] | 5.56 ± 0.28 | 5.3 ± 0.24 |  | 
